Changes are numbered by the printed parent chain.
B1: NRC3_wobSeed43_DR1_G26C_o1 (dsDNA)
DNA 1: GCCCAGACAGGTGAAAGGTAACTCACTCTGGTACGCGCGATTGACAGCGTAGAATGAAGG
DNA 2: CCTTCATTCTACGCTGTCAATCGCGCGTACCAGAGTGAGTTACCTTTCACCTGTCTGGGC
B2: NRC3_wobSeed116_DR4_A6T_o1 (dsDNA)
DNA 1: GCAGATTGAGGTTACCAAAGATCAGGGAAACGCTTGGCGATTGACAGCGTAGAATGAAGG
DNA 2: CCTTCATTCTACGCTGTCAATCGCCAAGCGTTTCCCTGATCTTTGGTAACCTCAATCTGC
B3: NRC3_wobSeed75_DR3_G24A_o1 (dsDNA)
DNA 1: GCTCTCGGAGGACACGAAGGTCAAAGCTTTCCAGAGGCGATTGACAGCGTAGAATGAAGG
DNA 2: CCTTCATTCTACGCTGTCAATCGCCTCTGGAAAGCTTTGACCTTCGTGTCCTCCGAGAGC
B4: NRC3_wobSeed6_DR0_G15C_o1 (dsDNA)
DNA 1: GCCCTAGCAGGCCACGGTCACTCAAGCATTTCGCTTGCGATTGACAGCGTAGAATGAAGG
DNA 2: CCTTCATTCTACGCTGTCAATCGCAAGCGAAATGCTTGAGTGACCGTGGCCTGCTAGGGC
B5: NRC3_wobSeed98_DR4_A28T_o1 (dsDNA)
DNA 1: GCACTAGTTGGTCAGCTGAGGTCACACTCAATTCGGGCGATTGACAGCGTAGAATGAAGG
DNA 2: CCTTCATTCTACGCTGTCAATCGCCCGAATTGAGTGTGACCTCAGCTGACCAACTAGTGC
B6: NRC3_wobSeed72_DR2_A22G_o1 (dsDNA)
DNA 1: GCTCGAGTAGGTTACGGGGGCGTTCAGGGATGAAGAGCGATTGACAGCGTAGAATGAAGG
DNA 2: CCTTCATTCTACGCTGTCAATCGCTCTTCATCCCTGAACGCCCCCGTAACCTACTCGAGC
B7: NRC3_wobSeed82_DR3_C13G_o1 (dsDNA)
DNA 1: GCATCGAAAGGTGGACGAGGTGAGTATACACCGTTTGCGATTGACAGCGTAGAATGAAGG
DNA 2: CCTTCATTCTACGCTGTCAATCGCAAACGGTGTATACTCACCTCGTCCACCTTTCGATGC
B8: NRC3_wobSeed2_DR0_A20T_o1 (dsDNA)
DNA 1: GCCCTAGTTGGTCAAGGTCTCACACGCTATAGGTACGCGATTGACAGCGTAGAATGAAGG
DNA 2: CCTTCATTCTACGCTGTCAATCGCGTACCTATAGCGTGTGAGACCTTGACCAACTAGGGC
B9: NRC3_wobSeed110_DR4_T27G_o1 (dsDNA)
DNA 1: GCTCTGCTAGGTCAACGATGGTCAGCGAATCTGCTAGCGATTGACAGCGTAGAATGAAGG
DNA 2: CCTTCATTCTACGCTGTCAATCGCTAGCAGATTCGCTGACCATCGTTGACCTAGCAGAGC
B10: NRC3_wobSeed38_DR1_o1 (dsDNA)
DNA 1: GCCCTGCTAGGTCAATGGTCAGCTAAAGCAGCTCGCGCGATTGACAGCGTAGAATGAAGG
DNA 2: CCTTCATTCTACGCTGTCAATCGCGCGAGCTGCTTTAGCTGACCATTGACCTAGCAGGGC
B11: NRC3_wobSeed48_DR1_G5T_o1 (dsDNA)
DNA 1: GCCCTAGTAGGTTATGGGGCATTCAGGCAACGGTGAGCGATTGACAGCGTAGAATGAAGG
DNA 2: CCTTCATTCTACGCTGTCAATCGCTCACCGTTGCCTGAATGCCCCATAACCTACTAGGGC
B12: NRC3_wobSeed54_DR2_G15T_o1 (dsDNA)
DNA 1: GCTCTAGCAGGCCATAGGGTCACTCAAGAGGTACGGGCGATTGACAGCGTAGAATGAAGG
DNA 2: CCTTCATTCTACGCTGTCAATCGCCCGTACCTCTTGAGTGACCCTATGGCCTGCTAGAGC
B13: NRC3_wobSeed20_DR0_C19T_o1 (dsDNA)
DNA 1: GCAGAATGAGGTTAAGATTAGGGAAACAGAATACATGCGATTGACAGCGTAGAATGAAGG
DNA 2: CCTTCATTCTACGCTGTCAATCGCATGTATTCTGTTTCCCTAATCTTAACCTCATTCTGC
B14: NRC3_wobSeed7_DR0_T6G_o1 (dsDNA)
DNA 1: GCTCAGATAGGTAAAGGTGAAAGTCGAACGATATGAGCGATTGACAGCGTAGAATGAAGG
DNA 2: CCTTCATTCTACGCTGTCAATCGCTCATATCGTTCGACTTTCACCTTTACCTATCTGAGC
B15: NRC3_wobSeed47_DR1_A5T_o1 (dsDNA)
DNA 1: GCGGTACGAGGGCAAAGTTGATAGCATCTGTCGACGGCGATTGACAGCGTAGAATGAAGG
DNA 2: CCTTCATTCTACGCTGTCAATCGCCGTCGACAGATGCTATCAACTTTGCCCTCGTACCGC
B16: NRC3_wobSeed26_DR1_A21T_o1 (dsDNA)
DNA 1: GCTCTAGTTGGTCAAAGGTCTCACACTCGAAATGCGGCGATTGACAGCGTAGAATGAAGG
DNA 2: CCTTCATTCTACGCTGTCAATCGCCGCATTTCGAGTGTGAGACCTTTGACCAACTAGAGC
B17: NRC3_wobSeed26_DR1_T19C_o1 (dsDNA)
DNA 1: B16 DNA 1 with T19C, T21A
DNA 2: B16 DNA 2 with A40T, A42G
B18: NRC3_wobSeed137_DR5_A25T_o1 (dsDNA)
DNA 1: GCATATGTAGGTTACATCCGGGTCTTTCAGGCTATGGCGATTGACAGCGTAGAATGAAGG
DNA 2: CCTTCATTCTACGCTGTCAATCGCCATAGCCTGAAAGACCCGGATGTAACCTACATATGC
B19: NRC3_wobSeed137_DR5_A14C_o1 (dsDNA)
DNA 1: B18 DNA 1 with A14C, T25A
DNA 2: B18 DNA 2 with A36T, T47G
B20: NRC3_wobSeed50_DR2_A17T_o1 (dsDNA)
DNA 1: GCCCTAGTTGGTCAGGTGGTCACACACCGGATATGAGCGATTGACAGCGTAGAATGAAGG
DNA 2: CCTTCATTCTACGCTGTCAATCGCTCATATCCGGTGTGTGACCACCTGACCAACTAGGGC
B21: NRC3_wobSeed102_DR4_A9C_o1 (dsDNA)
DNA 1: GCCCTAGCCGGCCAATCTGGGTCACTCAAGGCTTGAGCGATTGACAGCGTAGAATGAAGG
DNA 2: CCTTCATTCTACGCTGTCAATCGCTCAAGCCTTGAGTGACCCAGATTGGCCGGCTAGGGC
B22: NRC3_wobSeed102_DR4_G11A_o1 (dsDNA)
DNA 1: B21 DNA 1 with C9A, G11A
DNA 2: B21 DNA 2 with C50T, G52T
B23: NRC3_wobSeed99_DR4_A24T_o1 (dsDNA)
DNA 1: GCTCTCGGAGGACACGAAAGGTCTGAGCTCGACATCGCGATTGACAGCGTAGAATGAAGG
DNA 2: CCTTCATTCTACGCTGTCAATCGCGATGTCGAGCTCAGACCTTTCGTGTCCTCCGAGAGC
B24: NRC3_wobSeed64_DR2_G18T_o1 (dsDNA)
DNA 1: GCTAGCCTAGGTCATTGTGCCAGTATAGTACGCATCGCGATTGACAGCGTAGAATGAAGG
DNA 2: CCTTCATTCTACGCTGTCAATCGCGATGCGTACTATACTGGCACAATGACCTAGGCTAGC
B25: NRC3_wobSeed42_DR1_A14T_o1 (dsDNA)
DNA 1: GCTATACAGGGTCTAAGGCCAGAGTACGAATGTCGAGCGATTGACAGCGTAGAATGAAGG
DNA 2: CCTTCATTCTACGCTGTCAATCGCTCGACATTCGTACTCTGGCCTTAGACCCTGTATAGC
B26: NRC3_wobSeed69_DR2_C15G_o1 (dsDNA)
DNA 1: GCAGTCAAAGTTCAGTAGGTAACGTAAGATTCAGCTGCGATTGACAGCGTAGAATGAAGG
DNA 2: CCTTCATTCTACGCTGTCAATCGCAGCTGAATCTTACGTTACCTACTGAACTTTGACTGC
B27: NRC3_wobSeed4_DR0_G16T_o1 (dsDNA)
DNA 1: GCCCTACTGGGCCAATGTCATTGATCAGTCAAAGCAGCGATTGACAGCGTAGAATGAAGG
DNA 2: CCTTCATTCTACGCTGTCAATCGCTGCTTTGACTGATCAATGACATTGGCCCAGTAGGGC
B28: NRC3_wobSeed34_DR1_A9G_o1 (dsDNA)
DNA 1: GCATCGAAGGGTCGAAGGTGAGTATACCCACCCGAAGCGATTGACAGCGTAGAATGAAGG
DNA 2: CCTTCATTCTACGCTGTCAATCGCTTCGGGTGGGTATACTCACCTTCGACCCTTCGATGC
B29: NRC3_wobSeed14_DR0_C22G_o1 (dsDNA)
DNA 1: GCCCTGCTAGGTCATGGTCAGGTAATCTACAGTATGGCGATTGACAGCGTAGAATGAAGG
DNA 2: CCTTCATTCTACGCTGTCAATCGCCATACTGTAGATTACCTGACCATGACCTAGCAGGGC
B30: NRC3_wobSeed14_DR0_T5C_o1 (dsDNA)
DNA 1: B29 DNA 1 with T5C, G22C
DNA 2: B29 DNA 2 with C39G, A56G
B31: NRC3_wobSeed140_DR5_T15C_o1 (dsDNA)
DNA 1: GCAGAATGAGGTTACACGTAGATCAGGGAAGAAAGTGCGATTGACAGCGTAGAATGAAGG
DNA 2: CCTTCATTCTACGCTGTCAATCGCACTTTCTTCCCTGATCTACGTGTAACCTCATTCTGC
B32: NRC3_wobSeed141_DR5_C26T_o1 (dsDNA)
DNA 1: GCAGTCAAAGTTCAGGACGAGGTAATGTAAAGCACGGCGATTGACAGCGTAGAATGAAGG
DNA 2: CCTTCATTCTACGCTGTCAATCGCCGTGCTTTACATTACCTCGTCCTGAACTTTGACTGC
B33: NRC3_wobSeed141_DR5_T5A_o1 (dsDNA)
DNA 1: B32 DNA 1 with T5A, T26C
DNA 2: B32 DNA 2 with A35G, A56T

biological target: PPARa:RXRa (Homo sapiens, UniProt Q07869;P19793 full;full); assay: no ligand; PBM; 270 nM : 90 nM RXRa; PBS pH 7.4, 2% milk, 0.02% Triton X-100, 1 mM DTT, BSA, 0.4 mg/ml salmon testes DNA; settings: tags: GST kept;His cleaved; copies: 1;1; label: surface-attached array probe
How it was run: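 Scanned fluorescence from custom Agilent 4×180K protein-binding microarrays was regression-normalized. Binding z-scores use random background probes as reference. Ligand-free nuclear receptor dimers were incubated on the arrays for 1 h and detected with antibodies against each partner (one per run).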

PPARa:RXRa, sequence (Q07869 whole entry, chain 1 of 2): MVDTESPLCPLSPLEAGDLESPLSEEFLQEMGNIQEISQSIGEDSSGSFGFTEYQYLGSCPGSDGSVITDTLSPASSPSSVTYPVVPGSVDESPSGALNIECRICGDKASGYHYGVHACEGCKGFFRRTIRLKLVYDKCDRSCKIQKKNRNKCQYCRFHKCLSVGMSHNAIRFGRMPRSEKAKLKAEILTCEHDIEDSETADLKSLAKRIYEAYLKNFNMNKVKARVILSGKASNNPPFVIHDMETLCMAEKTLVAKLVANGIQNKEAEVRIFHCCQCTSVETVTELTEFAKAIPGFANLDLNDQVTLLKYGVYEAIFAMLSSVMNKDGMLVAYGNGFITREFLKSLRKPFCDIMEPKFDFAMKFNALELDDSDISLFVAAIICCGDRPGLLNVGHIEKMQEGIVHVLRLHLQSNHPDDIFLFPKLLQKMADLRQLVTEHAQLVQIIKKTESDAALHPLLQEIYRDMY
PPARa:RXRa, sequence (P19793 whole entry, chain 2 of 2): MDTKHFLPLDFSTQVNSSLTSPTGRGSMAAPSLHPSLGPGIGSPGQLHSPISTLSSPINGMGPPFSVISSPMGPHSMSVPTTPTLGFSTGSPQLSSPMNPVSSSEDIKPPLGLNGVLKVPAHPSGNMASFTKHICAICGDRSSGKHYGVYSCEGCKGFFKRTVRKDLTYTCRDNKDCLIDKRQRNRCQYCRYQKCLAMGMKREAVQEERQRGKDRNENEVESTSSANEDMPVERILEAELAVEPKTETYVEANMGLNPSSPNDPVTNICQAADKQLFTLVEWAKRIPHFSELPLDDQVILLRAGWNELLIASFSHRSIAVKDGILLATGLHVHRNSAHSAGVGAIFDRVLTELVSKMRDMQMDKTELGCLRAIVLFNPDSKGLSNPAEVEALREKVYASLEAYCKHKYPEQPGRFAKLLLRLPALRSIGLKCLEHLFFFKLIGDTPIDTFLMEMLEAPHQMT

Row | Binder | binding signal
1 | B1 | 3.54 PBM z-score against 500 random probes
2 | B2 | 3.29 PBM z-score against 500 random probes
3 | B3 | 3.46 PBM z-score against 500 random probes
4 | B4 | 0.43 PBM z-score against 500 random probes
5 | B5 | 3.53 PBM z-score against 500 random probes
6 | B6 | 3.48 PBM z-score against 500 random probes
7 | B7 | 0.49 PBM z-score against 500 random probes
8 | B8 | 0.37 PBM z-score against 500 random probes
9 | B9 | 3.11 PBM z-score against 500 random probes
10 | B10 | 3.19 PBM z-score against 500 random probes
11 | B11 | 3.05 PBM z-score against 500 random probes
12 | B12 | 3.24 PBM z-score against 500 random probes
13 | B13 | 3.39 PBM z-score against 500 random probes
14 | B14 | 3.2 PBM z-score against 500 random probes
15 | B15 | 3.22 PBM z-score against 500 random probes
16 | B16 | 3.41 PBM z-score against 500 random probes
17 | B17 | 3.15 PBM z-score against 500 random probes

Row | Binder | binding signal
18 | B18 | 3.32 PBM z-score against 500 random probes
19 | B19 | 3.09 PBM z-score against 500 random probes
20 | B20 | 0.4 PBM z-score against 500 random probes
21 | B21 | 3.14 PBM z-score against 500 random probes
22 | B22 | 3.03 PBM z-score against 500 random probes
23 | B23 | 0.43 PBM z-score against 500 random probes
24 | B24 | 3.37 PBM z-score against 500 random probes
25 | B25 | 0.39 PBM z-score against 500 random probes
26 | B26 | 3.56 PBM z-score against 500 random probes
27 | B27 | 0.47 PBM z-score against 500 random probes
28 | B28 | 3.17 PBM z-score against 500 random probes
29 | B29 | 3.51 PBM z-score against 500 random probes
30 | B30 | 3.35 PBM z-score against 500 random probes
31 | B31 | 3.5 PBM z-score against 500 random probes
32 | B32 | 3.3 PBM z-score against 500 random probes
33 | B33 | 3 PBM z-score against 500 random probes

Reference: publication PMC6555819, “Comprehensive study of nuclear receptor DNA binding provides a revised framework for understanding receptor specificity”
